{"source": "patent US20080311122A1", "about": "“Antagonists of Hmgb1 and/or Rage and Methods of Use Thereof” (Medimmune, LLC, priority 2005, published 2008)", "key": {"HMGB-1": {"molecular_target": "T1, HMGB-1 (Homo sapiens, UniProt P09429)", "T1 sequence (P09429 1-215)": "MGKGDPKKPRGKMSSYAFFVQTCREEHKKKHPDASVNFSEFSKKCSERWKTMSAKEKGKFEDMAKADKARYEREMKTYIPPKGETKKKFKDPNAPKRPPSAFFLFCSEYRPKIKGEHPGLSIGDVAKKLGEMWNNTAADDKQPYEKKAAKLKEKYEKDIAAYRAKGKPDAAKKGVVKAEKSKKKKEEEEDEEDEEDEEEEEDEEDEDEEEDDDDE", "assay": "Antibody HMG1 binding competition via BIAcore analysis", "protocol": "Antibody HMG1 Binding Competition via BIAcore Analysis: All experiments were performed on a BIAcore 3000 instrument (BIAcore, Inc., Piscataway, N.J.). The HMGB-1 protein was immobilized onto a CM5 sensor using a standard amine coupling chemistry protocol, as described in the BIAcore Handbook (BIAcore, Inc., Piscataway, N.J.). Briefly, the CM5 surface subject to the NHS/EDC activation. After activation a HMGB-1 was injected over the surface at a concentration of 100 nM or 200 nM (in 10 mM NaOAc, pH4) to a surface density of between 1100 and 1200 RU's. Following this, unreacted sites on the sensor chip surface were “capped” with an injection of 1M ethanolamine. For reference purposes, a blank flow cell was also prepared, utilizing this same procedure that was used to immobilize HMGB-1, but without any ligand.\nMAbs G2, G4, G9, S6 and Synagis were prepared at 1 uM and 2 uM. All mAb solutions were prepared in HBS-EP buffer (BIAcore, Inc., Piscataway, N.J.). Each cycle started with a 100 μL injection of the first mAb, injected at 1 μM, followed by a second 100 μL injection of a 1:1 mixture of two, 2× concentration mAbs, such that the final concentration of each component mAb in the mixture is equivalent to the first injection. […]\nOnce the entire set had been collected, the maximum RU responses for each mAb after each injection cycle was recorded. […]"}, "[1]": {"system": "AIA rat model of arthritis", "assay": "Adjuvant-induced arthritis (AIA) rat model", "assay_type": "in vivo", "conditions": "percent protection, isotype control subtracted", "protocol": "Induction of Adjuvant Induced Arthritis […]: Six-eight week old female DA rats (Harlen) were used. On day 0, isoflurane anesthetized animals were given an intradermal injection, at base of tail, 0.75 mg of mycobacterium butyricum (Difco #0640-33-7) mixed in 100 μl incomplete Freund's adjuvant (Difco, Detroit, Mich.).\nThe human anti-HMG1 antibody G4, the A-box-Fc fusion and the huIgG isotype control were administered at 10 mg/kg, every 3 days, day 0-15. Methotrexate was administered at 0.8 mg/kg, every 6 days, day 0-15 and Renbrel was administered at either 2.5 mg/kg every two days, day 0-15 for treatment group 5 or at 4 mg/kg, every 3 days, day 0-15 for treatment group 6. […]\nMonitoring Disease: Beginning at day 6 all animals were observed daily to assess the status of the disease in their paws, which was done by assigning a qualitative clinical score to each of the paws. Every day, each animal has its 4 paws scored according to its state of clinical disease. […] In addition, each mouse is weighed, to follow body weight changes, at the same time the paws are scored.\nThe joints of the 4 lateral digits of each paw are graded as involved or not involved, i.e., 1 or 0. For example, a maximally involved left rear paw would be scored: ankles=4, midfoot=4, MTP=4, PIP=4, DIP=4 (20 units). […]"}}, "data": [{"molecule": "G9: human anti-HMG1 antibody; VL/VH aa SEQ ID NO: 34/36 (antibody, listed as Homo sapiens, V domains shown) VH: EVQLLESGGGLVQPGGSLRLSCAASGFTFSSYDMFWVRQAPGKGLEWVSRISPSGGYTYYADSVKGRFTISRDNSKNTLYLQMNSLRAEDTAVYYCARLRYFDSRGYAFDIWGQGTMVTVSS VL: AQDIQMTQSPGTLSLSPGERATLSCRASQSVRSSYLAWYQQKPGQAPRLLIYGASTRATGIPDRFSGSGSGTDFTLTISRLEPEDFAVYYCQQYGTSRWTFGQGTKVEIK", "values": [{"measurement": "binding sites on HMGB1 by BIAcore competition", "setting": "HMGB-1", "value": "bind to either the same site or sites that are highly related perhaps overlapping"}]}, {"molecule": "S16: human anti-HMG1 antibody, ATCC PTA-6259; VL/VH aa SEQ ID NO: 13/15 (antibody, listed as Homo sapiens, V domains shown) VH: EVQLLESGGGLVQPGGSLRLSCAASGFTFSWYSMLWVRQAPGKGLEWVSYISPSGGFTNYADSVKGRFTISRDNSKNTLYLQMNSLRAEDTAVYYCARWDYNSGWYYDHWGQGTLVTVSS VL: AQDIQMTQSPDTLSLSPGERATLSCRASQSVNSRNLAWYQQKPGQAPRLLIYGASTRATGIPDRFSGSVSGTEFTLTISSLQPDDFATYYCQQYNSYFTFGQGTKLEIK", "values": [{"measurement": "in vivo AIA", "setting": "[1]", "value": 0, "unit": "%"}]}]}
